Where a chain is given by its changes, count along the chain named. Numbers in names are those of the source.
T1: monkey C5-mmh (monkey, UniProt P01031 19-1676 (human entry), limits assumed)
T1 construct: Recombinant monkey C5 with a C-terminal myc-myc-hexahistidine tag
T1 chain: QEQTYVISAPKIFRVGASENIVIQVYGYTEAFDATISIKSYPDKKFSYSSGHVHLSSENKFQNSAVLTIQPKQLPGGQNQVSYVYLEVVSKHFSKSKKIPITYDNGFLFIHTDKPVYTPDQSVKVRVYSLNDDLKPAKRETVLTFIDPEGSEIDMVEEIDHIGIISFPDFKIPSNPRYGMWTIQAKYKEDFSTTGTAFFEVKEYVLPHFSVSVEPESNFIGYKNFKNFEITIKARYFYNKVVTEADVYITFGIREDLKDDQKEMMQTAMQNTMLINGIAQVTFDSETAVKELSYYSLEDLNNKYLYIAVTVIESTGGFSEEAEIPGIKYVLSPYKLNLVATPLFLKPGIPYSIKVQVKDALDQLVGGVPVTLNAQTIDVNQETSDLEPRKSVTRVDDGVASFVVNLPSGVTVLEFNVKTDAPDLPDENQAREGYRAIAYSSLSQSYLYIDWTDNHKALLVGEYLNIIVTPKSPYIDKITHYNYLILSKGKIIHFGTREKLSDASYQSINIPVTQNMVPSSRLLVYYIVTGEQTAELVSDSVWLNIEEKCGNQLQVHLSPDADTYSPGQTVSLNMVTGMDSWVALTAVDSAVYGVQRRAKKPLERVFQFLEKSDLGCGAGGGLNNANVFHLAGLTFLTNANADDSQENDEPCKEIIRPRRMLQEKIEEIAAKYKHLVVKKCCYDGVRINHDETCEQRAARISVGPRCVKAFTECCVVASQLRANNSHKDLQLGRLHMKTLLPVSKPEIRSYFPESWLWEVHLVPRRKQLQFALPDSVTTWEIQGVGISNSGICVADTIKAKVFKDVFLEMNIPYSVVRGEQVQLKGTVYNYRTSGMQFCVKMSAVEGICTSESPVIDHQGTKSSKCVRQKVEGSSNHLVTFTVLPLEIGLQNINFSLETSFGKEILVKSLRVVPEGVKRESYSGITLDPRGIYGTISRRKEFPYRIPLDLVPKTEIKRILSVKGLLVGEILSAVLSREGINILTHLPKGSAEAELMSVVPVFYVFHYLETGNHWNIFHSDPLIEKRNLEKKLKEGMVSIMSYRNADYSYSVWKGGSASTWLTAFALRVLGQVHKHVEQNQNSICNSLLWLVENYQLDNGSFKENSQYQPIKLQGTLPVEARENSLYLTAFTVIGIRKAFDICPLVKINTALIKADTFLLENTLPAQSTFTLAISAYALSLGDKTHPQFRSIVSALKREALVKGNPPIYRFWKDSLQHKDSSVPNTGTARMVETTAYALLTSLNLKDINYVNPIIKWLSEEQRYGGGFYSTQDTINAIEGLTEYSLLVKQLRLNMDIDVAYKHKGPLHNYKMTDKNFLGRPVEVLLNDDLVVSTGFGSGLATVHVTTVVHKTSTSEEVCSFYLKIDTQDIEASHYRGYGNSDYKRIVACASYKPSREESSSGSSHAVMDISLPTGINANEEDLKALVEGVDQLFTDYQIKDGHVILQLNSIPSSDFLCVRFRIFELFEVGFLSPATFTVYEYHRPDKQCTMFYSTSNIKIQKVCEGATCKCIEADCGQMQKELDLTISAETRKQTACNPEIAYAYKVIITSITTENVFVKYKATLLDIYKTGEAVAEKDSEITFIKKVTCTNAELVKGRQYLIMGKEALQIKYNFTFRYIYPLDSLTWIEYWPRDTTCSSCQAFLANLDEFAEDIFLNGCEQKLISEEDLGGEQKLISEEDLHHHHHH

B1: H4H12176P2 (antibody, human IgG4, V domains shown)
VH: EVQLVESGGGLVQPGGSLRLSCAASGFHSNRYWMDWVRQAPGKGLEWVANIKQDGSEENYVDSVKGRFTISRDNAKNSLYLQMNSLRAEDTAVYYCARDRSTSWVPYWFFDLWGRGTLVTVSS
VL: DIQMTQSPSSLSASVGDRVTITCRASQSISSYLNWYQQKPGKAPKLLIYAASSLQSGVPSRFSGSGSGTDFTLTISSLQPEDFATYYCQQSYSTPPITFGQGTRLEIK
notes: Human IgG4 Fc with S108P hinge mutation (H4H)
B2: H4H12183P2 (antibody, human IgG4, V domains shown)
VH: QVQLQESGPALVKPSQTLSLTCTVSGGSIIRGSTYWSWVRQFPGKGLEWIGYSYYSGTAYYNPSLESRATISVDTSKNQFSLNLKSVTAADTAVYYCTREIGVAGLFDIWGQGTLVTVSS
VL: not shown
notes: as for B1
B3: H4H12169P (antibody, human IgG4, V domains shown)
VH: EVQLVESGGGLAQPGGSLRLSCAASGFTFRSYAMSWVRQAPGKGPEWVSGIGGNGVTTYYADSVKGRFTISRDNSKNTLFLQMNSLRAEDTAVYYCVQGGLGGYFTGYWGQGTLVTVSS
VL: DIQMTQSPSSLSASVGDRVTITCRASQSISTYLNWYQQNPGKAPKLLIFDASSLQSGVPSRFSGSGSGTDFTLTIRGLQPEDFATYYCQQSYSAPLTFGGGTKVEIK
notes: as for B1
B4: H4H12166P (antibody, V domains shown)
VH: QVQLQESGPGLVKPSETLSLTCTVSGDSVSSSYWTWIRQPPGKGLEWIGYIYYSGSSNYNPSLKSRATISVDTSKNQFSLKLSSVTAADTAVYYCAREGNVDTTMIFDYWGQGTLVTVSS
VL: AIQMTQSPSSLSASVGDRVTITCRASQGIRNDLGWYQQKPGKAPKLLIYAASSLQSGVPSRFAGRGSGTDFTLTISSLQPEDFATYYCLQDFNYPWTFGQGTKVEIK
B5: H4H12166P2 (antibody, human IgG4, V domains shown)
VH: B4 VH
VL: B4 VL with L89H
notes: Histidine-mutated CDR variant of H4H12166P; human IgG4 Fc with S108P

Tests used:
[1] = target: T2, human C5 R885C-mmh (human, UniProt P01031 19-1676); test: SPR, mAb captured via anti-hFc, 25C
T2 construct: also called human C5 variant R885C
Method: (§1) Equilibrium dissociation constants (KD values) for C5 binding to purified anti-C5 antibodies were determined using a real-time surface plasmon resonance biosensor assay on a Biacore T200 instrument. The Biacore sensor surface was derivatized by amine coupling with a monoclonal mouse anti-human Fc antibody (GE Healthcare, # BR-1008-39) to capture anti-C5 antibodies expressed with human Fc constant regions. Biacore binding studies were conducted in HBST running buffer (0.01M HEPES pH 7.4, 0.15M NaCl, 3 mM EDTA, 0.05% v/v Surfactant P20).
(§2) Human C5 was obtained from a commercial source (EMD). Other C5 reagents were expressed with a C-terminal myc-myc-hexahistidine tag (subsequently referred to as C5-mmh). […] Association of all the C5 reagents to each of the captured monoclonal antibodies was monitored for 3 minutes and their dissociation in HBST running buffer was monitored for 8 minutes. All the binding kinetics experiments were performed at either 25° C. or 37° C. Kinetic association (kₐ) and dissociation (kd) rate constants were determined by fitting the real-time sensorgrams to a 1:1 binding model using Scrubber 2.0c curve fitting software. Binding dissociation equilibrium constants (KD) and dissociative half-lives (t %) were calculated from the kinetic rate constants as: KD (M)=kd/kₐ and t_{1/2} (min)=In2/(60×kd)

[2] = target: T3, human C5 R885H-mmh (human, UniProt P01031 19-1676); test: SPR, mAb captured via anti-hFc, 25C
T3 construct: also called human C5 variant R885H
Method: as §1, §2

[3] = target: T2, human C5 R885C-mmh; test: SPR, mAb captured via anti-hFc, 37C
Method: as §1, §2

[4] = target: T1, monkey C5-mmh; test: SPR, mAb captured via anti-hFc, 37C
Method: as §1, §2

[5] = target: T3, human C5 R885H-mmh; test: SPR, mAb captured via anti-hFc, 37C
Method: as §1, §2

[6] = target: African green monkey C5 (African green monkey); test: cell-based or functional assay
[7] = target: Cynomolgus monkey C5 (cynomolgus monkey, UniProt A0A2K5U1T1 19-1676); test: cell-based or functional assay
[8] = target: T4, human C5 (human, UniProt P01031 19-1676); test: SPR, mAb captured via anti-hFc, dissociation at pH7.4 vs pH6.0, 25C
T4 construct: Bought human C5 (EMD #204888, said elsewhere to be purified from plasma); also called hC5; complement component 5
Method: Effect of pH on the rate of dissociation of recombinant human C5 bound to purified anti-C5 monoclonal antibodies was determined using a real-time surface plasmon resonance biosensor using a Biacore T200 instrument. The Biacore sensor surface was first derivatized by amine coupling with a monoclonal mouse anti-human Fc antibody (GE, # BR-1008-39) to capture anti-C5 monoclonal antibodies expressed with human IgG4 Fc. All Biacore binding studies were performed using two running buffers PBS-T, pH7.4 (0.01M Na₂HPO₄/NaH₂PO₄, 0.15M NaCl, 0.05% v/v Tween-20, adjusted to pH7.4) and PBS-T, pH6.0 (0.01M Na₂HPO₄/NaH₂PO₄, 0.15M NaCl, 0.05% v/v Tween-20, adjusted to pH6.0). […] Binding dissociative half-lives (t %) were calculated from kd as: […]

Row | Binder | 100 nM Human C5 R885C-mmh Bound (RU) [1] | Kd [1] | koff [1] | kon [1] | t1/2 [1] | 100 nM Human C5 R885H-mmh Bound (RU) [2] | Kd [2] | koff [2] | kon [2] | t1/2 [2] | 100 nM Human C5 R885C-mmh Bound (RU) [3] | Kd [3] | koff [3] | kon [3] | t1/2 [3] | 100 nM monkey C5-mmh Bound (RU) [4] | Kd [4] | koff [4] | kon [4] | t1/2 [4] | also measured
1 | B1 | 63 RU | 2.03 nM | 0.000218 s⁻¹ | 107000 M⁻¹ s⁻¹ | 53 min | 65 RU | 1.22 nM | 0.000217 s⁻¹ | 178000 M⁻¹ s⁻¹ | 53 min | 55 RU | 7.32 nM | 0.00103 s⁻¹ | 141000 M⁻¹ s⁻¹ | 11 min | 47 RU | 9.6 nM | 0.00129 s⁻¹ | 135000 M⁻¹ s⁻¹ | 9 min | 100 nM Human C5 R885H-mmh Bound (RU) [5]: 69 RU; Kd [5]: 3.73 nM; koff [5]: 0.000958 s⁻¹; kon [5]: 257000 M⁻¹ s⁻¹; t1/2 [5]: 12 min
2 | B2 | 80 RU | 0.737 nM | 2.2e-05 s⁻¹ | 29900 M⁻¹ s⁻¹ | 525 min | 99 RU | 1.16 nM | 4.37e-05 s⁻¹ | 37700 M⁻¹ s⁻¹ | 264 min | 25 RU | 19.5 nM | 0.000997 s⁻¹ | 51200 M⁻¹ s⁻¹ | 12 min | 13 RU | 118 nM | 0.00637 s⁻¹ | 54000 M⁻¹ s⁻¹ | 2 min | 100 nM Human C5 R885H-mmh Bound (RU) [5]: 36 RU; Kd [5]: 7.43 nM; koff [5]: 0.000712 s⁻¹; kon [5]: 95800 M⁻¹ s⁻¹; t1/2 [5]: 16 min
3 | B3 | 168 RU | 0.251 nM | 6.99e-05 s⁻¹ | 278000 M⁻¹ s⁻¹ | 165 min | 173 RU | 0.147 nM | 7.09e-05 s⁻¹ | 484000 M⁻¹ s⁻¹ | 163 min | 75 RU | 2.24 nM | 0.000737 s⁻¹ | 329000 M⁻¹ s⁻¹ | 16 min | 64 RU | 14.3 nM | 0.00361 s⁻¹ | 251000 M⁻¹ s⁻¹ | 3 min | 100 nM Human C5 R885H-mmh Bound (RU) [5]: 79 RU; Kd [5]: 1.72 nM; koff [5]: 0.000739 s⁻¹; kon [5]: 429000 M⁻¹ s⁻¹; t1/2 [5]: 16 min
4 | B4 |  |  |  |  |  |  |  |  |  |  |  |  |  |  |  |  |  |  |  |  | AGM AP % Max Inhibition, hemolysis assay, 5% serum [6]: 44.2%; AGM CP % Max Inhibition, hemolysis assay, 5% serum [6]: 81%; AGM Serum AP IC50, hemolysis assay, 5% serum [6]: 233 nM; Cyno AP % Max Inhibition, hemolysis assay, 5% serum [7]: 98.6%; Cyno CP % Max Inhibition, hemolysis assay, 5% serum [7]: 94.2%; Cyno Serum AP IC50, hemolysis assay, 5% serum [7]: 8.85 nM; Cyno Serum CP IC50, hemolysis assay, 5% serum [7]: 20.1 nM
5 | B5 |  |  |  |  |  |  |  |  |  |  |  |  |  |  |  | 83 RU | 7.56 nM | 0.00297 s⁻¹ | 393000 M⁻¹ s⁻¹ | 4 min | t1/2 Ratio pH7.4/pH6.0 [8]: 9.3

Reference: patent US20170355757A1 (Regeneron, published 2017)
